Target: the molecule itself
Assay: SEC

B1: Recombinant rat NADPH-cytochrome P450 reductase with a single amino acid mutation of K56Q (enzyme, UniProt P00388 1-678, looked up)
chain: MGDSHEDTSATMPEAVAEEVSLFSTTDMVLFSLIVGVLTYWFIFRKKKEEIPEFSQIQTTAPPVKESSFVEKMKKTGRNIIVFYGSQTGTAEEFANRLSKDAHRYGMRGMSADPEEYDLADLSSLPEIDKSLVVFCMATYGEGDPTDNAQDFYDWLQETDVDLTGVKFAVFGLGNKTYEHFNAMGKYVDQRLEQLGAQRIFELGLGDDDGNLEEDFITWREQFWPAVCEFFGVEATGEESSIRQYELVVHEDMDVAKVYTGEMGRLKSYENQKPPFDAKNPFLAAVTANRKLNQGTERHLMHLELDISDSKIRYESGDHVAVYPANDSALVNQIGEILGADLDVIMSLNNLDEESNKKHPFPCPTTYRTALTYYLDITNPPRTNVLYELAQYASEPSEQEHLHKMASSSGEGKELYLSWVVEARRHILAILQDYPSLRPPIDHLCELLPRLQARYYSIASSSKVHPNSVHICAVAVEYEAKSGRVNKGVATSWLRAKEPAGENGGRALVPMFVRKSQFRLPFKSTTPVIMVGPGTGIAPFMGFIQERAWLREQGKEVGETLLYYGCRRSDEDYLYREELARFHKDGALTQLNVAFSREQAHKVYVQHLLKRDREHLWKLIHEGGAHIYVCGDARNMAKDVQNTFYDIVAEFGPMEHTQAVDYVKKLMTKGRYSLDVWS
B1: binds.

Reference: publication PMC2789667 (Biochemistry, 2009)
